As usually defined, the Kd is the concentration at which binding is half-saturated.

10 molecules from patent US20180142007A1 (AXON NEUROSCIENCE, published 2018) can be followed below.

Where a chain is given by its changes, count along the chain named. A value given as a limit tells only on which side of the number the result lay.

For assay [1], the target named is T1, misdisordered truncated tau 151-391/4R (human, UniProt P10636 468-708).
T1 construct: Recombinant, from clone tau40 in pET-17b, expressed in E. coli; numbered on the longest human tau isoform 2N4R (441 aa); An added start methionine is not mentioned; also called tauΔ(1-150;392-441)/4R; misdisordered tau II
T1 sequence (P10636 468-708): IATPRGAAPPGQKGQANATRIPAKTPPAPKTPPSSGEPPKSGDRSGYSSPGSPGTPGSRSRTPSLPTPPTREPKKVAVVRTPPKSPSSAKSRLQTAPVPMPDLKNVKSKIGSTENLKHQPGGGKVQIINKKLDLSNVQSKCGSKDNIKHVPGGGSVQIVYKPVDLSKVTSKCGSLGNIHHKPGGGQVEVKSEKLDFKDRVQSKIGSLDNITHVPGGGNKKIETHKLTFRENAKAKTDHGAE
In words: SPR Biacore T200, antibody captured by anti-IgG on CM5 chip, tau 151-391/4R as analyte, steady state analysis. Here is the method:
Antibody affinity determination was carried out by SPR analysis using a Biacore T200. Anti-human IgG (GE Healthcare, cat. no. BR-1008-39) or anti-murine IgG (GE Healthcare, cat. no. BR-1008-38) was covalently immobilized to a CM5 chip (Cat. no. BR-1005-30) to the point of saturation and in accordance with the manufacturer's instructions. […] Association time was set at 150 sec and disassociation time 300 sec. Tau concentrations were chosen empirically in order to obtain curvature during the association phase. The kinetics of binding/dissociation was initially analyzed according to the 1:1 interaction model using BIAcore T200 evaluation software package 2.0.
In general terms: SPR reads the build-up and loss of mass on a sensor chip optically.

Assay [2] deals with T1, misdisordered truncated tau 151-391/4R. In words: cell-based or functional assay.
A further assay concerns the target T2, tau peptide 314-342 (human).
T2 construct: Synthetic peptide (EZBiolabs), numbered on tau 2N4R
T2 peptide: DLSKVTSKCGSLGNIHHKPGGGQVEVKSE
In words: direct ELISA, tau peptide coated on plate. On the technique in general: ELISA stands for enzyme-linked immunosorbent assay.

For a further assay, the target named is T3, tau peptide 352-380 (human).
T3 construct: Synthetic peptide (EZBiolabs), numbered on tau 2N4R
T3 peptide: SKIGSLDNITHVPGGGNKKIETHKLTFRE
In words: direct ELISA, tau peptide coated on plate.

Another assay addresses T4, tau peptide 282-311 (human).
T4 construct: Synthetic peptide (EZBiolabs), numbered on tau 2N4R; also called peptide derived from MTBRII
T4 peptide: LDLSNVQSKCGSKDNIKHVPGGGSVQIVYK
In words: direct ELISA, tau peptide coated on plate.

The next assay concerns the target T5, tau peptide 256-285 (human).
T5 construct: Synthetic peptide (EZBiolabs), numbered on tau 2N4R
T5 peptide: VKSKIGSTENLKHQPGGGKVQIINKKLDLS
The experiment in a line: direct ELISA, tau peptide coated on plate.

Assay [3] concerns the target T1, misdisordered truncated tau 151-391/4R. In words: assay not named in the sentence (tau binding assay of the examples).
The target is the same in assay [4]. The experiment in a line: binding ELISA, plate coated with Tau 151-391/4R.

B1: chimeric DC8E8 (isotype not stated where tested) (antibody)
VH: QVQLQQSGPELVKPGTSVKMPCKASGYIFTDYVISWVKQRTGQGLEWIGEIFPRSGSTYYNEKFKGKATLTADKSSNTAYMQLSSVTSEDSAVYFCARDYYGTSFAMDYWGQGTSVTVSS
light: DIVMSQSPSSLAVSAGEKVTMSCKSSQSLLNSRTRKNYLAWYQQKPGQSPKLLIYWASTRESGVPDRFTGSGSGTDFTLTISSVQAEDLAVYYCKQSFYLRTFGGGTKLDIKRTVAAPSVFIFPPSDEQLKSGTASVVCLLNNFYPREAKVQWKVDNALQSGNSQESVTEQDSKDSTYSLSSTLTLSKADYEKHKVYACEVTHQGLSSPVTKSFNRGEC
notes: Whole chimeric antibody with human constant regions; also called chimeric antibody
B1 registered a Kd in assay [1] of about 10 nM. Moreover, in assay [2], the “amount of fibrillized pathological tau forms (Thioflavin T fluorescence), antibody at 10 uM” value is under 5.9%.

B2: AX004-IgG4, humanized DC8E8 RHD/RKA, IgG4 isotype (antibody)
heavy: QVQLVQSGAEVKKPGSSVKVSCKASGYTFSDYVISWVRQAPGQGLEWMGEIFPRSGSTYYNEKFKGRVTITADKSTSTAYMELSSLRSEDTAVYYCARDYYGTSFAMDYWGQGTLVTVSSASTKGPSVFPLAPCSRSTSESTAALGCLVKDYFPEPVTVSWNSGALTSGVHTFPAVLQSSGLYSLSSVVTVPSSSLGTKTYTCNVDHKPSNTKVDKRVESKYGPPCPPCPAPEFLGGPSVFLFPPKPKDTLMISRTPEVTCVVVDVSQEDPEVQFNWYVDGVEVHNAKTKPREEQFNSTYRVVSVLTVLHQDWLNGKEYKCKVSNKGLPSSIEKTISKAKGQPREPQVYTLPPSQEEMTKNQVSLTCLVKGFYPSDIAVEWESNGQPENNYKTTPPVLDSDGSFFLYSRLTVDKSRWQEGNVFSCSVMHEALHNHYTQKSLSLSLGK
light: DIVMTQSPLSLPVTPGEPASISCKSSQSLLNSRTRKNYLAWYLQKPGQSPQLLIYWASTRESGVPDRFTGSGSGTDFTLKISRVEAEDVGVYYCKQSFYLRTFGQGTKVEIKRTVAAPSVFIFPPSDEQLKSGTASVVCLLNNFYPREAKVQWKVDNALQSGNSQESVTEQDSKDSTYSLSSTLTLSKADYEKHKVYACEVTHQGLSSPVTKSFNRGEC
notes: Expressed in Expi293; also called AXON004-IgG4
B2: the binding result in the assay with tau peptide 314-342, with tau peptide 352-380, in the assay with tau peptide 282-311 and with tau peptide 256-285 was “binds” in each case. In assay [2], the “amount of fibrillized pathological tau forms (Thioflavin T fluorescence), antibody at 10 uM” value was under 3%.

B3: AX016-IgG4, humanized DC8E8 RHD/RKB, IgG4 isotype (antibody)
heavy: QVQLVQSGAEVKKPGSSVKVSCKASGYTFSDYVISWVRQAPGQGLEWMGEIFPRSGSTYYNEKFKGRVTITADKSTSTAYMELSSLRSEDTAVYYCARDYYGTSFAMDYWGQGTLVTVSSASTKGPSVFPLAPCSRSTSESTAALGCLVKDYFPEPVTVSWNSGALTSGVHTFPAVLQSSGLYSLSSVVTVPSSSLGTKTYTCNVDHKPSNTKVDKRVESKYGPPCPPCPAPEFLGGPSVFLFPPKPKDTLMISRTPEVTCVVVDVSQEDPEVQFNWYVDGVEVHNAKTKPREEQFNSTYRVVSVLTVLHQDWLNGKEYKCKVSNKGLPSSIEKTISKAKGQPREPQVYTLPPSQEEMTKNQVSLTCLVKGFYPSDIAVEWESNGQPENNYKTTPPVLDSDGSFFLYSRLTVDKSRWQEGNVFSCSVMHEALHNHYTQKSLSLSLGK
light: B2 light with T5S
notes: Expressed in Expi293; also called AXON016-IgG4
Consider B3, for which the binding result with tau peptide 314-342, in the assay with tau peptide 352-380, with tau peptide 282-311 and with tau peptide 256-285 was “binds” throughout. Further, the “amount of fibrillized pathological tau forms (Thioflavin T fluorescence), antibody at 10 uM” value in assay [2] was under 3%.

B4: mouse monoclonal antibody DC8E8 (antibody, mouse IgG1)
heavy: QVQLQQSGPELVKPGTSVKMPCKASGYIFTDYVISWVKQRTGQGLEWIGEIFPRSGSTYYNEKFKGKATLTADKSSNTAYMQLSSVTSEDSAVYFCARDYYGTSFAMDYWGQGTSVTVSSAKTTPPSVYPLAPGSAAQTNSMVTLGCLVKGYFPEPVTVTWNSGSLSSGVHTFPAVLQSDLYTLSSSVTVPSSTWPSQTVTCNVAHPASSTKVDKKIVPRDCGCKPCICTVPEVSSVFIFPPKPKDVLTITLTPKVTCVVVDISKDDPEVQFSWFVDDVEVHTAQTKPREEQINSTFRSVSELPIMHQDWLNGKEFKCRVNSAAFPAPIEKTISKTKGRPKAPQVYTIPPPKEQMAKDKVSLTCMITNFFPEDITVEWQWNGQPAENYKNTQPIMDTDGSYFVYSKLNVQKSNWEAGNTFTCSVLHEGLHNHHTEKSLSHSPGK
VL: DIVMSQSPSSLAVSAGEKVTMSCKSSQSLLNSRTRKNYLAWYQQKPGQSPKLLIYWASTRESGVPDRFTGSGSGTDFTLTISSVQAEDLAVYYCKQSFYLRTFGGGTKLDIK
notes: also called murine DC8E8; mouse DC8E8
Molecule B4 showed a Kd in assay [1] of about 10 nM. In addition, in the assay with tau peptide 282-311, the binding result is recorded as “binds”. The “amount of fibrillized pathological tau forms (Thioflavin T fluorescence), antibody at 10 uM” value in assay [2] is under 4.7%.

B5: AX038, humanized DC8E8 RHM/RKB (isotype not stated where tested) (antibody, V domains shown)
VH: QVQLVQSGAEVKKPGSSVKVSCKASGYIFSDYVISWVRQAPGQGLEWMGEIFPRSGSTYYNEKFKGRVTITADKSTSTAYMELSSLRSEDTAVYYCARDYYGTSFAMDYWGQGTLVTVSS
VL: DIVMSQSPLSLPVTPGEPASISCKSSQSLLNSRTRKNYLAWYLQKPGQSPQLLIYWASTRESGVPDRFTGSGSGTDFTLKISRVEAEDVGVYYCKQSFYLRTFGQGTKVEIKR
notes: also called RHM version
As to B5, the binding result in assay [3] is “binds”.

B6: AX002, humanized DC8E8 RHB/RKA (isotype not stated where tested) (antibody)
VH: B5 VH with A9P, S21P, S30T, R38K, M48I, R67K, V68A, I70L, Y95F
light: B2 light
On to B6, for which the binding result in assay [4] is “binds”.

B7: AX014, humanized DC8E8 RHB/RKB (isotype not stated where tested) (antibody)
VH: B5 VH with A9P, S21P, S30T, R38K, M48I, R67K, V68A, I70L, Y95F
light: B2 light with T5S
notes: 2 (a CDR)
In the case of B7, the binding result in assay [3] is on record as “binds”.

B8: AX016, humanized DC8E8 RHD/RKB (isotype not stated where tested) (antibody)
VH: B5 VH with I28T
light: B2 light with T5S
notes: also called AX016 (DB)
B8 registered a Kd in assay [1] of 9 nM.

B9: AX001, humanized DC8E8 RHA/RKA (isotype not stated where tested) (antibody, V domains shown)
VH: B5 VH with Y27G, I28T
VL: B5 VL with S5T
notes: also called initial humanized version
With B9, the “fold decrease in binding affinity relative to chimeric DC8E8” value in assay [3] worked out at 10 fold.

B10: AX037, humanized DC8E8 RHM/RKA (isotype not stated where tested) (antibody, V domains shown)
VH: B5 VH
VL: B5 VL with S5T
notes: also called RHM version
Consider B10, for which the binding result in assay [3] is recorded as “binds”.
